doi:10.1101/686790

Columns and labels:
[1] = target: GST-HP1γ (UniProt P23198 11-183); assay: EMSA
[2] = target: T1, GST-HP1γ-Hinge (UniProt P23198 77-111); assay: EMSA
T1 chain: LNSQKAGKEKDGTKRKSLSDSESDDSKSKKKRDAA

Sequence of GST-HP1γ (P23198 11-183): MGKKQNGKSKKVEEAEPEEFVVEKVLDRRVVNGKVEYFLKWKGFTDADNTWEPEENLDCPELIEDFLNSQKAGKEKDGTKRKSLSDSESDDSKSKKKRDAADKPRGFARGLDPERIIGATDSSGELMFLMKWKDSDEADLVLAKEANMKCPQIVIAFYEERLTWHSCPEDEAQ

Binder	binding result [1]	binding result [2]
UCUGGCACACAGCCACACGCUCAC (ssRNA) [CACACA]	binds	binds
GUGAGCUCCAGGCCAGUGAGAGACCCUGUCUCAA (ssRNA) [GAGAGA]	–	binds
CGCUUCGGGCUCGCCGCUCGCUUCC (ssRNA) [Scrambled]	–	no binding
